Source: the RNAGym collection of RNA variant scans (doi:10.7554/elife.90254)

B1: LINE1-mini (parent)
chain: GGCAGAGCUCAACACAGCGUGGCAAAGUGGCUGUGGCUAGACUGCC

Variants of: B1
Assay: self-cleavage, relative activity (ratio to wild type); higher = more cleavage; in vitro, sequencing; the parent is a self-cleaving ribozyme

Point of comparison: U9C A41C, self-cleavage 0.04. Against it:
- G1U G5C — the same, 0.04
- G1U C10A — lower, 0.03
- U9A U32A — higher, 0.11
- G1A A24C — higher, 0.56
- C13G G29U — higher, 0.33
- U9G U38A — higher, 0.06
- C18A G27U — higher, 1.04
- A24G G27A — higher, 0.98
- A4G G35U — higher, 0.19
- A6U A26C — higher, 0.56
- C37A G44C — higher, 0.07
- G7C C42G — higher, 0.1
- C13G C23G — higher, 0.13
- C15U G30A — higher, 0.35
- C15U G30U — higher, 0.6
- G21C C23U — higher, 1.27
- A41C G44C — higher, 0.08
- G1C C13U — the same, 0.04
- C10A A12C — the same, 0.04
- C10G U28G — higher, 0.08
- A12G G29A — lower, 0.03
- C10G A14C — the same, 0.04
- G2C G19C — higher, 0.16
- G1A A16C — higher, 0.11
- A4U G19A — higher, 0.68
- A39G C45U — higher, 0.06
- A39G C45G — higher, 0.09
- C13U A24G — higher, 0.13
- U9A A12G — higher, 0.05
- A16C C18U — higher, 0.09
- A6G A16U — higher, 0.06
- A12G C23U — lower, 0.03
- A12G C23G — higher, 0.05
- A11G C13A — the same, 0.04
- A16G G19U — higher, 0.47
- C23A C31G — higher, 0.08
- A16U G35C — higher, 0.07
- A4C G40C — higher, 0.12
- A11U U38G — lower, 0.01
- A4C U34C — higher, 0.15
- U32A C45G — higher, 0.07
- C10U C46A — higher, 0.33
- G21A G33U — higher, 0.26
- C3U G44A — higher, 1.07
- G2C U9G — higher, 0.07
- A4C U43G — higher, 0.17
- G33A G35A — higher, 0.07
- G17C U20A — higher, 0.55
- G7A G30C — higher, 0.42
- G21C G30C — higher, 1.62
- U34A C46A — higher, 0.06
- U32C G40U — higher, 0.07
- U28A A39C — higher, 0.15
- A14U U32G — higher, 0.1
- U32C U34G — higher, 0.08
- U32A G44C — higher, 0.07
- G7U A26C — higher, 0.24
- G1U U32A — higher, 0.06
- C18U G21C — higher, 1.13
- G22A A25C — higher, 0.8
- C31A U32A — higher, 0.05
- G2U U20A — higher, 0.07
- G2U U20C — higher, 0.05
- G35A G40U — higher, 0.05
- A16C G30A — higher, 0.14
- G27U C42A — higher, 0.17
- A6U A16G — higher, 0.14
- C8A U43A — higher, 0.14
- C45G C46G — higher, 0.53
- G2A U43A — higher, 0.14
- C8U G33C — higher, 0.07
- G7C U34C — higher, 0.06
- C3U C45U — higher, 0.32
- U28C G40C — higher, 0.2
- G2A U28A — higher, 0.32
- U20C U34A — higher, 0.12
- G21A C23G — higher, 0.78
- G21A C23A — higher, 1.07
- C13U C31U — higher, 0.12
- C10U G27A — higher, 0.27
- G30C U38A — higher, 0.75
- G1U G36C — the same, 0.04
- C37U G44U — higher, 0.25
- G7A G35C — higher, 0.13
- C8A G29A — higher, 0.26
- C3U A12G — higher, 0.06
- A14C G36U — higher, 0.09
- C15U G19U — higher, 0.87
- U28A G35C — higher, 0.08
- G7U U20C — higher, 0.07
- G35A U38A — higher, 0.1
- U32C G35C — higher, 0.08
- A4G U38G — the same, 0.04
- C10U C13G — higher, 0.09
- G17U A41U — higher, 0.09
- C3A A16G — higher, 0.22
- A24U U38C — higher, 1.36
- G33C G35A — the same, 0.04
- A6C G27A — higher, 0.5
- G5A C10U — higher, 0.09
- G30U U32A — higher, 0.13
- U9C A41G — higher, 0.05
- G35C G44C — higher, 0.05
- G5C U28A — higher, 0.1
- C18U U20A — higher, 0.61
- C15A U38G — higher, 0.07
- C10G C45U — higher, 0.14
- A14G C15A — higher, 0.08
- C23U G33A — higher, 0.15
- G33A — higher, 0.11
- A24C A39U — higher, 0.25
- A4U G5C — higher, 0.45
- C3U C23U — higher, 0.38
- A24U U28G — higher, 0.39
- C42A U43G — higher, 0.07
- G17A G21A — higher, 0.22
- G22A G33A — higher, 0.52
- C8A G19U — higher, 0.11
- A16C C46U — higher, 0.08
- C15U U28C — higher, 1.52
- A14U C23A — higher, 0.65
- G7U A39C — higher, 0.19
- G21U A25G — higher, 1.23
- A12G U32C — higher, 0.14
- C3G A24U — higher, 0.72
- C18G A39U — higher, 0.47
- G7C U28A — higher, 0.18
- G2A G27A — higher, 0.66
- A4C G27A — higher, 0.17
- A16U G21A — higher, 0.23
- G5U G33U — higher, 0.05
- A16C C42A — higher, 0.05
- A16C C42U — higher, 0.06
- C3A C10G — higher, 0.05
- C13G G30U — higher, 0.19
- G44C C46G — higher, 0.08
- A6U U38G — the same, 0.04
- C8G A39U — the same, 0.04
- A12C G27A — lower, 0.03
- A24C G33A — higher, 0.06
- C18A G35A — higher, 0.05
- G7A A16U — higher, 0.32
- C3A C42A — higher, 0.33
- G7A C13U — higher, 0.29
- A6C G17C — higher, 1.47
- A14U A25C — higher, 0.3
- C23A A41G — higher, 0.43
- A12U A39U — higher, 0.16
- U9G A12U — higher, 0.14
- C37A — higher, 0.08
- G27U U34C — higher, 0.19
- U34G C46U — higher, 0.19
- C3G A4G — higher, 0.2
- A14U A16C — higher, 0.1
- G19U G44U — higher, 0.28
- C31U A41G — the same, 0.04
- G30A C45U — higher, 1.57
- C37A A39C — higher, 0.12
- C8G G40C — higher, 0.09
- A4U G40A — higher, 0.17
- C8G C46G — higher, 0.11
- C15U C46U — higher, 0.43
- U9A G44A — higher, 0.31
- G21C A41U — higher, 0.5
- C8G U9C — lower, 0.02
- G2C C3G — higher, 0.07
